# Test: soluble on expression in E. coli; label from the status in PepcDB or PDB records
row,Sequence,soluble on expression in E. coli
1,MGKLIDIPIVVESGQKYKTSQGVTAIKDGIKSSGQDHERLPKPKWLRIVNHTTPAYSQVKEQVQKHRLATVCEEAKCPNISECWSHGTATIMLMGAVCTRACRFCSVDTGNPHGWLDAEEPENTAETVALMNLDYVVLTSVNRDDLPDGGANHYAKTIRAIKKRSPRTKVEALTPDFQGSERDVAVLLDSGVDVFAQNVETVERLTHPVRDNRAGYQQTLNVLAFAKKYRPDVLTKTSLMLGLGETDEEIIQTMDDLRTHHVDILTLGQYLQPTKNHLPIARYVTPETFSELRQIGLKKGFFEVASGPLVRSSYRADRVFKRDNLGLDV,not soluble
2,MGKLKWFSGGKERSNQAENIITDLLDDLKTDLDNESLKKVLENYLEELKQKSASVPLILSRMNLDISKAIRNDGVTLSDYQSKKLKELTSISNIRYGY,soluble
3,MGKLNRRDVIKGLGMAAASLAAAQRGLQARAAPSRIVWSPYVVFLNANAKAFIVDTRTDQVVASLDTARGATLGSMTPDAKKVYVSGAGEGETRVVILDLENLRVAKVLETGNRPKHGLVSPDGRRVGVDHWALSGGKLRLTFIRTEDDTIEKVLDIPVTNQPKGVTSMHNAWSWDSRYFFSVDRVDDRLVVVDTADWSVRTFSAPSVPHYPVVSPDGKELWLVHEGNDRVRPGIAVYDLTRPDLPIVAQVEMPLIGEDAVEAHHGNFTQDGRYFMALNRGPGNNLRGREVAFFSPRTKRLVHRLTCASTGVGHAYNSPDGRRVIATNYGNNVITVIDLLGLRTLKDLVIGKGRMGHVVFTPDGRFAYLSNADGNLYKLDMRSLTVVKVIETGQTNGGGQVLNVWTNVFEELPRG,soluble
4,MGKREKKPNRRRHKGEYSNDAEDFYDQHPPAVASVDEEDEENSDEEEEENDGNESSDLPSKFLLYQQSVQSPKGDISYLQKFFLIFYIDCWNSAEWLKTDTRRTAIGLDFDLEALEWCMDNNISKLGSDVYSRMSLFHGNVLTPLEAKQVKSKSHELIQNISLDDGDDNEDLADPSVVESLEKDGPDSLPKRDIVCAFNFSCCCLHKRSELVSYFKNARDALSKKGGIFVMDLYGGASAEGQLKLQRKFPNFTYTWEQAEFDILSRKTRISLHYHLQKQNRKIRHAFSYSWRLWSLPEIKDCMEEAGFSSVHFWLREMPDASEMRRTDGFGAGRDIKYEQVKSFQQCDSWNAYIVAVSL,not soluble
5,MGKTLVVGAGGVSHAAVHKMAMNSDIFTEITLASRTKAKCDAIAASVKERTGVTIQTAALDAMDVAATVALIKETGAEILVNLALPYQDLKLMDACLEAGCHYLDTANYEPEDVAKFEYHWQWAYQDKFKEAGLTAILGSGFDPGVTSVFATWLKKHKLATIRQIDVLDA,not soluble
6,MGLKVLLYDPDGEIAHFLEDIFEVTGHTLYPAGSEEEVFEYLKNEPEFFFLPFSLKEAWVNSLKERATIPIFFLFSEEEEERAKGLGIPEVNLVRVPFNPLELFERLGLLHKMKPKDFQEIGLFNTLVKSHLEEKGVKVKIKGSGGECLVNTYPVSLSCRLEELKELLKKRLRTGRR,not soluble
7,MGLTAMGLTTMGLTTVGLATMGATTKISQQHFFKFSRSDPIVLLQYSYSTTTVPRPYPTNNSKPISLQKTKTQFFLNYSNPTVLLQYLYSTTTVPRPYPTTNPKLISLQQPKTPFLSPRIRLVLREHERCRGALSDVWVAGAARGAVRCAKLYNKTRHVIRKISANKRKLFPLFYCYTYIHTYKNQVSPEKNANQKGKRMFPRFMVGVALIFELNNYDIETSCSHSSSSFSARLSSADYEVYWARALQILHVGGVEIDEFGGG,not soluble
8,MGLYEKIVNKEEKISVIGLGYVGMPLAIAFAKYAQVIGFDVDKKKIEIYKSGIDPTKEIGNEAIKNTTVEFTSDETKLKEAKFHIVAVPTPINIDKTPDLTPVESASVIVGRNMARGSYVVYESTVYPGVTEDICIPILERESGLKCGVDFKVGYSPERINPGDKKHTLETIKKIVSAIDDESLDEIAKIYSLVIKAGVHKTSSIKVAEAAKVVENSQRDINIAFMNELAMVFDRMGIDTKEVIDAMNTKWNALGFYPGLVGGHCIGVDPYYFIYQAEKLGYHSQIILSGRKINDGMGEFIANTIIKKLIHVNKVVKKSKVVIFGITYKENCPDTRNSKVVDIIKGLNEYGIEPIVVDPQANREDTKQEYGIELMDIDDVKDADCLVFAVAHDEFKNMAWEQIEKFFKNIDNSEKVIIDVKGIFDKNKIEKLGYCYWRL,soluble
